Experiment [1] has as its target T1, human IL-23 (IL-23-His-Biotin) (human, UniProt Q9NPF7 20-189; P29460 23-328, biotin label, site not stated).
T1 construct: Akesobio lot 20161209; His-tagged and biotinylated
T1 sequence (looked up) 1: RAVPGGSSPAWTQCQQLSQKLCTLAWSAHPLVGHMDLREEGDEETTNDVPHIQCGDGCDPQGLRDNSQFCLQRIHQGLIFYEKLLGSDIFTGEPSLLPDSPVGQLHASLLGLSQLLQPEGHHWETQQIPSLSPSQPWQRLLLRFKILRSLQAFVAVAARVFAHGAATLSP
T1 sequence (looked up) 2: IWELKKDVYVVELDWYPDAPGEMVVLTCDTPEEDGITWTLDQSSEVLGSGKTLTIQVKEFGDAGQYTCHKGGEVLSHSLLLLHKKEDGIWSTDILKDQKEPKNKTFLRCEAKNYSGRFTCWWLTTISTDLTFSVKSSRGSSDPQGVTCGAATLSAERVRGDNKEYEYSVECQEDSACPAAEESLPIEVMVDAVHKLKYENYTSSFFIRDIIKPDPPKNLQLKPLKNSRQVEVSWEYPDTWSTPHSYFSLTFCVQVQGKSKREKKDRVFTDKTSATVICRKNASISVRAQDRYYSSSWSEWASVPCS
As to the kind of experiment: FACS competition, IL23-His-Biotin (4 µg/mL mixed 1:1) on 293T-IL-12Rβ1&IL-23R cells. The method, then: 200 μL of 1% PBSA was added into each sample, and the mixture was centrifuged at 1200 rpm for 5 min to discard the supernatant. According to experiment design, correspondingly diluted antibody (highest concentration of 60 μg/mL, 3-fold dilution, 8 concentrations in total) and human IL23-His-Biotin (Akeso Biopharma, Inc., Lot. No.: 20161209) (4 μg/mL) were mixed at a ratio of 1:1, and a blank control was set. The mixture of antibody and IL23-His-Biotin was incubated on ice for 30 min and then added to the cell precipitate at 100 μL/sample. The resulting mixture was well mixed and incubated on ice for 60 min. 200 μL of 1% PBSA was added, and the mixture was centrifuged at 1200 rpm for 5 min to discard the supernatant, and then washed twice. FITC Steptavidin (Biolegend, Cat. No.: 405202) was diluted at a ratio of 1:500 and added to each tube at 100 μL. The mixture was well mixed and incubated on ice for 40 min in the absence of light. 200 μL of 1% PBSA was added, and the mixture was centrifuged at 1200 rpm for 5 min to discard the supernatant, and then washed twice. 1% PBSA was added at 200 μL/tube, and the cells were resuspended and transferred to a flow cytometry tube for testing.

The target in experiment [2] is T2, human p40-His (human, UniProt P29460 23-328).
T2 construct: Made by Akeso Biopharma; construct limits and tag not described; also called human IL-12/IL-23 p40 protein domain; human IL-12/IL-23 p40; not shown: His tag
T2 sequence (looked up): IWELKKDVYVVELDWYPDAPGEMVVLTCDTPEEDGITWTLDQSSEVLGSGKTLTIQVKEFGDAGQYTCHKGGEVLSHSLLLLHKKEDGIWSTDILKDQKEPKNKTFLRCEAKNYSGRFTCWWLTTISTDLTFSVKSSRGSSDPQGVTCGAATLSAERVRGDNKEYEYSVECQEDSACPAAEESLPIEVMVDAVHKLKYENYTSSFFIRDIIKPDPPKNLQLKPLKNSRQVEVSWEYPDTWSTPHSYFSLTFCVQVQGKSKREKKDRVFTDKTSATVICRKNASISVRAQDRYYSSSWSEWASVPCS
As to the kind of experiment: indirect ELISA, p40-His coat 0.25 µg/mL. How it is done: (§1) A microplate was coated with human p40-His (Akeso Biopharma, Inc.; gene of p40: GeneBank NM002187). After incubation at 4° C. for no less than 12 h, the plate was washed with PBST, patted dry and blocked with a solution of 1% BSA in PBS. After blocking was completed, the plate was washed with PBST and patted dry. The antibody diluted with PBST solution in gradient was added into the wells of the plate, and the antibody dilution gradient is detailed in Table 1. The plate containing the test antibody was incubated at 37° C. for 30 min and then washed with PBST and patted dry. […] TMB (Neogen, 308177) was added for color developing for 5 min in the absence of light, and then stop solution was added to terminate the chromogenic reaction. Then the plate was put into a plate reader immediately, and the OD value of each well in the plate was read at 450 nm. The data were analyzed by SoftMax Pro 6.2.1.
The binding EC₅₀ of antibody was calculated by curve fitting using antibody concentration as the abscissa and absorbance value as the ordinate, and the results are shown in Table 4 below.

The target of experiment [3] is T3, Human IL12 (His Tag) (human, UniProt P29459 23-219; P29460 23-328).
T3 construct: Bought His-tagged heterodimer
T3 sequence (looked up) 1: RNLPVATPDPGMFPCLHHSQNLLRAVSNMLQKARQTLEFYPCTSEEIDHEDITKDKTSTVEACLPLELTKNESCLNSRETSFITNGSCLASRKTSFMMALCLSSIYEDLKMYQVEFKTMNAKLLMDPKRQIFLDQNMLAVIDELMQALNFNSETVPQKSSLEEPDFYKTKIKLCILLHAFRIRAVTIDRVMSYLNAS
T3 sequence (looked up) 2: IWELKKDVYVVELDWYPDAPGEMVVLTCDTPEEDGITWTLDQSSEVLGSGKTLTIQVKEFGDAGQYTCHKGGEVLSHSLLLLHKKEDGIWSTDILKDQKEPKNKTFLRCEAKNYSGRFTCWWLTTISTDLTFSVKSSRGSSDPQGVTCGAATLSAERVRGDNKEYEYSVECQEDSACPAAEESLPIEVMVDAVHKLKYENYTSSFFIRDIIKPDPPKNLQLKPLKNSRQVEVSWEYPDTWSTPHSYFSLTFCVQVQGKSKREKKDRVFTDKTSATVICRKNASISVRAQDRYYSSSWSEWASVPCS
As to the kind of experiment: FACS competition, IL12-His (40 nM mixed 1:1) on 293T-IL-12Rβ1&IL-23R cells. How it is done:
200 μL of 1% PBSA was added into each sample, and the mixture was centrifuged at 1200 rpm for 5 min to discard the supernatant. According to experiment design, correspondingly diluted antibody (highest final concentration of 60 μg/mL, 3-fold dilution, 8 concentrations in total) and IL12-His (Sino Biological, Cat. No.: CT-050-H08H-20) (40 nM) were mixed at a ratio of 1:1, and a blank control was set. The mixture of antibody and IL12 was incubated on ice for 30 min and then added to the cell precipitate at 100 μL/sample. The resulting mixture was well mixed and incubated on ice for 60 min 200 μL of 1% PBSA was added, and the mixture was centrifuged at 1200 rpm for 5 min to discard the supernatant, and then washed twice. THETM His tag antibody (FITC) (Genscript, Cat. No.: A01620) was diluted at a ratio of 1:500 and added to each tube at 100 μL. The mixture was well mixed and incubated on ice for 40 min in the absence of light. 200 μL of 1% PBSA was added, and the mixture was centrifuged at 1200 rpm for 5 min to discard the supernatant, and then washed twice. 1% PBSA was added at 200 μL/tube, and the cells were resuspended and transferred to a flow cytometry tube for testing.

For experiment [4], the target named is T2, human p40-His. As to the kind of experiment: indirect ELISA, p40-His coat 0.125 µg/mL. How it is done:
as §1
The binding EC₅₀ of antibody was calculated by curve fitting using antibody concentration as the abscissa and absorbance value as the ordinate, and the results are shown in Table 2 below.

In experiment [5] the target is T2, human p40-His. As to the kind of experiment: indirect ELISA, p40-His coat 0.125 µg/mL. How it is done:
as §1
The binding EC₅₀ of antibody was calculated by curve fitting using antibody concentration as the abscissa and absorbance value as the ordinate, and the results are shown in Table 1 below.
This is another data set of the same source.

In patent publication US20220298235A1 (AKESO BIOPHARMA, published 2022) one finds EC50 data, which are given here for three molecules.

B1: ustekinumab (antibody, V domains shown)
VH: EVQLVQSGAEVKKPGESLKISCKGSGYSFTTYWLGWVRQMPGKGLDWIGIMSPVDSDIRYSPSFQGQVTMSVDKSITTAYLQWNSLKASDTAMYYCARRRPGQGYFDFWGQGTLVTVSS
VL: DIQMTQSPSSLSASVGDRVTITCRASQGISSWLAWYQQKPEKAPKSLIYAASSLQSGVPSRFSGSGSGTDFTLTISSLQPEDFATYYCQQYNIYPYTFGQGTKLEIK
For B1, the EC50 in experiment [1] amounted to 1.43 µg/mL; in experiment [2], 0.077 nM; in experiment [3], 1.58 µg/mL.

B2: H5L10 (antibody, human IgG1, kappa, V domains shown)
VH: EVQLVQSGAEVKKPGESLKISCQSSGYSFTTYWIGWVRQMPGQGLEWIGIMSPVDSDIRYNPMFRGQVTMSVDKSSSTAYLQWSSLKASDTAMYYCARRRPGQGYFDFWGQGTMVTVSS
VL: EIVLTQSPATLSASPGERATISCRASQSVGSWLAWYQQKPGQAPRSLIYAASNLQSGIPARFSGSGSGTDFTLTISSLEPEDFAVYYCQQYNIYPYTFGQGTRLEIKR
notes: human IgG1 / kappa constant regions; also called humanized antibody H5L10
In experiment [4], B2 displayed an EC50 of 0.057 nM.

B3: H5L9 (antibody, human IgG1, kappa, V domains shown)
VH: EVQLVQSGAEVKKPGESLKISCQSSGYSFTTYWIGWVRQMPGQGLEWIGIMSPVDSDIRYNPMFRGQVTMSVDKSSSTAYLQWSSLKASDTAMYYCARRRPGQGYFDFWGQGTMVTVSS
VL: DIQMTQSPSSLSASVGDRVTITCKASQNVGSWLAWYQQKPGKAPKSLIYSASSRQSGVPSRFSGSGSGTDFTLTISSLQPEDFATYYCQQYDIYPFTFGQGTKLEIKR
notes: human IgG1 (P01857) / kappa (P01834) constant regions; also called humanized antibody H5L9
On to B3, for which the EC50 in experiment [5] is 0.079 nM.
